Assay [1] has as its target head-to-tail connector protein (80α gp49) (Staphylococcus aureus bacteriophage 80α). The assay is described as follows: cryo-EM structure; focused reconstruction of the neck of purified SaPI1 virions with C6 symmetry, 3.1 Å; AlphaFold2 models fitted and refined in ISOLDE; virions in 20 mM Tris-HCl pH 7.8, 50 mM NaCl, 4 mM CaCl2, 1 mM MgSO4, treated with Benzonase.
The target of assay [2] is head-tail joining protein (80α gp50) (Staphylococcus aureus bacteriophage 80α). The description is as above.
Assay [3] addresses tape measure protein (80α gp56) (Staphylococcus aureus bacteriophage 80α). Nature of the assay: cryo-EM structure; asymmetric (C1) reconstruction of the neck of purified SaPI1 virions after symmetry expansion and masked classification on the tail interior, 3.4 Å (3.54 Å in the methods); AlphaFold2/AlphaFold3 models fitted.
The target in assay [4] is major tail protein (80α gp53) (Staphylococcus aureus bacteriophage 80α). Nature of the assay: cryo-EM structure; focused reconstruction of the neck of purified SaPI1 virions with C6 symmetry, 3.1 Å; AlphaFold2 models fitted and refined in ISOLDE; virions in 20 mM Tris-HCl pH 7.8, 50 mM NaCl, 4 mM CaCl2, 1 mM MgSO4, treated with Benzonase.
Assay [5] addresses portal protein (80α gene product 42) (Staphylococcus aureus bacteriophage 80α). The description is as above.
Assay [6] concerns the target tail terminator protein (80α gp52) (Staphylococcus aureus bacteriophage 80α). The assay is described as above.

The term stoichiometry N denotes a count of units in the complex or per binding partner.

In the case of “head-to-tail connector protein (80α gp49) (natural protein)”, in assay [1], the stoichiometry N amounted to 12.
For “head-tail joining protein (80α gp50) (natural protein)”, the stoichiometry N in assay [2] was found to be 6.
The substance “tape measure protein (80α gp56) (natural protein)” displayed a stoichiometry N in assay [3] of 3.
“major tail protein (80α gp53) (natural protein)” showed a stoichiometry N in assay [4] of 6.
“portal protein (80α gene product 42) (natural protein)”: the stoichiometry N in assay [5] came out at 12.
For the substance “tail terminator protein (80α gp52) (natural protein)”, in assay [6], the stoichiometry N stood at 6.

These data come from article doi:10.1101/2024.12.10.627806.
